In article PMC8857205:

Biological target: Glu14 (UniProt position 14, GAILAEVIGTT)
Assay: NMR
[1] = TPP+-bound, cited from earlier work

Substance | pKa [1] | pKa (45 °C, 20 mM NaCl plus buffer salts (total ionic strength not stated), 50 mM sodium acetate, 50 mM MOPS, 50 mM MES, 50 mM bicine, 2 mM TCEP, 0.01% DSS, F4-TPP+-bound (saturated), folded dimer in bicelles)
EmrE (multidrug transporter, small multidrug resistance family), wild type (Escherichia coli) | 6.8 ± 0.1 | –
S64V-EmrE (Escherichia coli; S64V) | 7.0 ± 0.1 | 6.9 ± 0.1
